Laboratory results from the Immune Epitope Database (IEDB).

How the values were obtained:
HLA-A*02:01 = experiment: IEDB peptide-MHC binding, purified MHC/competitive/radioactivity; ≥ and ≤ were set here for values at or beyond the usual limits of such assays; settings: source organism: Lassa virus Josiah
HLA-A*02:02 = experiment: as above
HLA-A*02:06 = experiment: as above
HLA-A*02:03 = experiment: as above
HLA-A*68:02 = experiment: IEDB peptide-MHC binding, purified MHC/competitive/radioactivity; filed as Kd, often an IC50 or EC50 that approximates it; ≥ and ≤ were set here for values at or beyond the usual limits of such assays
[1] = source organism: Lassa virus Josiah
[2] = source organism: Lassa virus GA391

VLIALSVLAV
IC50 (HLA-A*02:01): 485 nM

SLYKGVYEL
IC50 (HLA-A*02:02; [1]): 115 nM | IC50 (HLA-A*02:01): 47 nM | IC50 (HLA-A*02:06; [1]): 395 nM | IC50 (HLA-A*02:03; [1]): 12 nM | Kd (HLA-A*68:02; [1]): ≥ 10000 nM

GLYNFATCGL
IC50 (HLA-A*02:01): 31 nM

LIALSVLAV
IC50 (HLA-A*02:01): 102 nM

ILAADLEKL
IC50 (HLA-A*02:01): 92 nM

IISTFHLSI
IC50 (HLA-A*02:01): 330 nM

LMSIISTFHL
IC50 (HLA-A*02:01): 113 nM

YLISIFLHL
IC50 (HLA-A*02:02; [2]): 173 nM | IC50 (HLA-A*02:01): 14 nM | IC50 (HLA-A*02:06; [2]): 10 nM | IC50 (HLA-A*02:03; [2]): 11 nM | Kd (HLA-A*68:02; [2]): 6660 nM

GLYKQPGVPV
IC50 (HLA-A*02:01): 89 nM
